For this assay, the target named is Runx2 expressed from pCMV5 Cbfa1 in transfected cells. Nature of the assay: cell-based or functional assay.

For “Fhl2 expressed from pCMX Fhl2 in Cos-7 cells (from UniProt Q14192 1-279)”, the transcriptional activity of Runx2 (luciferase reporter, transient transfection in Cos-7 cells; 6xOSE2 artificial promoter and human osteocalcin promoter) was found to be 3 fold.
